The source of these data is patent US9802997B2, “Peptides and combination of peptides for use in immunotherapy against various tumors” (immatics biotechnologies GmbH, priority 2015, dated 2017).

For this assay, the target named is HLA-A*02:01 (Homo sapiens, UniProt P04439, D140Y/D185E/D98H/E176V/E277Q/G131W/G231S/I119V/I121R/I166T/I218V/L300P/L318F/N151K/N90K/P208A/P217A/Q86G/Q94H/R138H/R169H/T345S). The assay is described as follows: MHC binding assay (UV-ligand exchange, beta2m ELISA). The note with it: binding to HLA-A*02:01, β2m ELISA. An excerpt:
Candidate peptides for T cell based therapies according to the present invention were further tested for their MHC binding capacity (affinity). The individual peptide-MHC complexes were produced by UV-ligand exchange, where a UV-sensitive peptide is cleaved upon UV-irradiation, and exchanged with the peptide of interest as analyzed. Only peptide candidates that can effectively bind and stabilize the peptide-receptive MHC molecules prevent dissociation of the MHC complexes. To determine the yield of the exchange reaction, an ELISA was performed based on the detection of the light chain (β2m) of stabilized MHC complexes. The assay was performed as generally described in Rodenko et al. (Rodenko et al., 2006).
96 well MAXISorp plates (NUNC) were coated over night with 2 ug/ml streptavidin in PBS at room temperature, washed 4× and blocked for 1 h at 37° C. in 2% BSA containing blocking buffer. Refolded HLA-A*02:01/MLA-001 monomers served as standards, covering the range of 15-500 ng/ml. Peptide-MHC monomers of the UV-exchange reaction were diluted 100 fold in blocking buffer. Samples were incubated for 1 h at 37° C., washed four times, incubated with 2 ug/ml HRP conjugated anti-β2m for 1 h at 37° C., washed again and detected with TMB solution that is stopped with […]. Absorption was measured at 450 nm. Candidate peptides that show a high exchange yield (preferably higher than 50%, most preferred higher than 75%) are generally preferred for a generation and production of antibodies or fragments thereof, and/or T cell receptors or fragments thereof, as they show sufficient avidity to the MHC molecules and prevent dissociation of the MHC complexes.
Turning to “256 (FLNDIFERI; listed as Homo sapiens) [compound 256]”, the “Peptide exchange (MHC class I binding score, peptide exchange yield)” value (from here on “Peptide exchange”) is “+++ (≧50 = +++)”.

On to “151 (DISKRIQSL; listed as Homo sapiens) [compound 151]”, for which the “Peptide exchange” value is reported as “++ (≧20% = ++)”.

For “221 (IMLNSVEEI; listed as Homo sapiens) [compound 221]”, the “Peptide exchange” value was “++ (≧20% = ++)”.

For “214 (ALFETLIQL; listed as Homo sapiens) [compound 214]”, the “Peptide exchange” value is on record as “+++ (≧50 = +++)”.

For “227 (SEMEELPSV; listed as Homo sapiens) [compound 227]”, the “Peptide exchange” value is on record as “+ (≧10% = +)”.

Consider “262 (LLLEAVWHL; listed as Homo sapiens) [compound 262]”, for which the “Peptide exchange” value was “+++ (≧50 = +++)”.

For the substance “243 (GLAEFQENV; listed as Homo sapiens) [compound 243]”, the “Peptide exchange” value is “++ (≧20% = ++)”.

In the case of “111 (AQLEGKLVSI; listed as Homo sapiens) [compound 111]”, the “Peptide exchange” value is recorded as “+++ (≧50 = +++)”.

On to “12 (RLLDPKTIFL; listed as Homo sapiens) [compound 12]”, for which the “Peptide exchange” value is reported as “+++ (≧50 = +++)”.

For the substance “265 (FLLDKPQDLSI; listed as Homo sapiens) [compound 265]”, the “Peptide exchange” value is on record as “+++ (≧50 = +++)”.

For the substance “165 (SLLDYEVSI; listed as Homo sapiens) [compound 165]”, the “Peptide exchange” value is given as “+++ (≧50 = +++)”.

Take “67 (FLIENLLAA; listed as Homo sapiens) [compound 67]”: the “Peptide exchange” value is on record as “+++ (≧50 = +++)”.

“114 (LLFPSDVQTL; listed as Homo sapiens) [compound 114]”: the “Peptide exchange” value is “++ (≧20% = ++)”.

Consider “139 (IILENIQSL; listed as Homo sapiens) [compound 139]”, for which the “Peptide exchange” value is listed as “+++ (≧50 = +++)”.

Consider “206 (GLDAFRIFL; listed as Homo sapiens) [compound 206]”, for which the “Peptide exchange” value is reported as “++++ (≧75% = ++++)”.

On to “273 (SLNKQIETV; listed as Homo sapiens) [compound 273]”, for which the “Peptide exchange” value is “++ (≧20% = ++)”.

“60 (YLFSQGLQGL; listed as Homo sapiens) [compound 60]”: the “Peptide exchange” value is reported as “+++ (≧50 = +++)”.

Regarding “45 (FLPVSVVYV; listed as Homo sapiens) [compound 45]”, the “Peptide exchange” value is on record as “+++ (≧50 = +++)”.

Take “235 (SLLNQPKAV; listed as Homo sapiens) [compound 235]”: the “Peptide exchange” value is reported as “++ (≧20% = ++)”.

Take “62 (SLVENIHVL; listed as Homo sapiens) [compound 62]”: the “Peptide exchange” value is “+++ (≧50 = +++)”.

Take “38 (VLQQESNFL; listed as Homo sapiens) [compound 38]”: the “Peptide exchange” value is “++ (≧20% = ++)”.

On to “103 (YLADTVQKL; listed as Homo sapiens) [compound 103]”, for which the “Peptide exchange” value is recorded as “++ (≧20% = ++)”.

For “125 (AALEVLAEV; listed as Homo sapiens) [compound 125]”, the “Peptide exchange” value is recorded as “+++ (≧50 = +++)”.

Take “194 (KLLEEVQLL; listed as Homo sapiens) [compound 194]”: the “Peptide exchange” value is “++ (≧20% = ++)”.

In the case of “251 (LLWGNLPEI; listed as Homo sapiens) [compound 251]”, the “Peptide exchange” value is given as “+++ (≧50 = +++)”.

As to “195 (VIIQNLPAL; listed as Homo sapiens) [compound 195]”, the “Peptide exchange” value was “+++ (≧50 = +++)”.

“185 (TLYQGLPAEV; listed as Homo sapiens) [compound 185]”: the “Peptide exchange” value is listed as “++ (≧20% = ++)”.

On to “253 (KLLAVIHEL; listed as Homo sapiens) [compound 253]”, for which the “Peptide exchange” value is listed as “+++ (≧50 = +++)”.

Regarding “110 (QIQGQVSEV; listed as Homo sapiens) [compound 110]”, the “Peptide exchange” value is given as “++ (≧20% = ++)”.

On to “161 (NLLDENVCL; listed as Homo sapiens) [compound 161]”, for which the “Peptide exchange” value is recorded as “++++ (≧75% = ++++)”.

With “119 (SLIEESEEL; listed as Homo sapiens) [compound 119]”, the “Peptide exchange” value is given as “++ (≧20% = ++)”.

Consider “137 (KLIYKDLVSV; listed as Homo sapiens) [compound 137]”, for which the “Peptide exchange” value is “++ (≧20% = ++)”.

Turning to “116 (ALLSSVAEA; listed as Homo sapiens) [compound 116]”, the “Peptide exchange” value is “++ (≧20% = ++)”.

Take “204 (SEWGSPHAAVP; listed as Homo sapiens) [compound 204]”: the “Peptide exchange” value is “+++ (≧50 = +++)”.

Take “40 (KIWEELSVLEV; listed as Homo sapiens) [compound 40]”: the “Peptide exchange” value is “+++ (≧50 = +++)”.

As for “91 (LLPSIFLMV; listed as Homo sapiens) [compound 91]”, the “Peptide exchange” value is reported as “++ (≧20% = ++)”.

Regarding “266 (FLLDKPQDL; listed as Homo sapiens) [compound 266]”, the “Peptide exchange” value is recorded as “++ (≧20% = ++)”.

Consider “79 (TVLEEIGNRV; listed as Homo sapiens) [compound 79]”, for which the “Peptide exchange” value is listed as “++ (≧20% = ++)”.

For “58 (HLLGEGAFAQV; listed as Homo sapiens) [compound 58]”, the “Peptide exchange” value is given as “+++ (≧50 = +++)”.

Regarding “52 (TIGIPFPNV; listed as Homo sapiens) [compound 52]”, the “Peptide exchange” value is “++ (≧20% = ++)”.

As to “16 (SLADLSLLL; listed as Homo sapiens) [compound 16]”, the “Peptide exchange” value is given as “+++ (≧50 = +++)”.

Regarding “230 (KLLNMIFSI; listed as Homo sapiens) [compound 230]”, the “Peptide exchange” value is given as “+++ (≧50 = +++)”.

“25 (LLWGHPRVALA; listed as Homo sapiens) [compound 25]”: the “Peptide exchange” value is recorded as “+++ (≧50 = +++)”.

Turning to “174 (ALYSGDLHAA; listed as Homo sapiens) [compound 174]”, the “Peptide exchange” value is listed as “++ (≧20% = ++)”.

For “286 (FLTEMVHFI; listed as Homo sapiens) [compound 286]”, the “Peptide exchange” value is “+++ (≧50 = +++)”.

“213 (ILAVDGVLSV; listed as Homo sapiens) [compound 213]”: the “Peptide exchange” value was “+++ (≧50 = +++)”.

As for “222 (LLTGVFAQL; listed as Homo sapiens) [compound 222]”, the “Peptide exchange” value is “++ (≧20% = ++)”.
